Data taken from US20210270842A1 (DYAX, published 2021).

How the values were obtained:
[1] = biological target: T1, cleaved high molecular weight kininogen (HMWK) (human, UniProt P01042 19-380; P01042 390-644); assay: sandwich ELISA with coated Fab; value = C, midpoint of the printed 4-P fit; 2-chain HMWK spiked into SBT buffer, analysed in 10% plasma
T1 construct: also called cleaved HMWK; 2-chain HMWK
T1 sequence 1: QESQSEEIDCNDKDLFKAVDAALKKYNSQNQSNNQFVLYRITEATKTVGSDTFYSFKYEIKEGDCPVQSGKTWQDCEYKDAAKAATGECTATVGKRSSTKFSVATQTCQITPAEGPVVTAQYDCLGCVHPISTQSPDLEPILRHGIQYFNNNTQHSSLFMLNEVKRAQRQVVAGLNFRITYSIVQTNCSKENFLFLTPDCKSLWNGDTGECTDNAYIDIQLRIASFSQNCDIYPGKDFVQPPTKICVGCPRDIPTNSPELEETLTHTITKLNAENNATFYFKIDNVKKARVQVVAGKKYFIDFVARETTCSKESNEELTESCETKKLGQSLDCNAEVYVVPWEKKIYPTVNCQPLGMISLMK
T1 sequence 2: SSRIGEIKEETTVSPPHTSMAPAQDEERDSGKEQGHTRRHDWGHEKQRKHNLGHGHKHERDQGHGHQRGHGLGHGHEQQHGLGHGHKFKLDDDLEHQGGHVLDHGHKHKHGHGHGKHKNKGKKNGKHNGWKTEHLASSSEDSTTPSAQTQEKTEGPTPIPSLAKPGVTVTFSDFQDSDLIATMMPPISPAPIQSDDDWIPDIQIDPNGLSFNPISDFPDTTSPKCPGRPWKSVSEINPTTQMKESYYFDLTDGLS
Source text: Purified cleaved HMWK was spiked into SBT assay buffer (open circles), SBT assay buffer and analyzed in the presence of 10% plasma (squares), or HMWK-deficient plasma and analyzed in the presence of 10% plasma (triangles). Purified cleaved HMWK was also spiked into assay buffer and analyzed in the presence of 2.5% plasma (diamonds) or HMWK deficient plasma and analyzed in the presence of 2.5% plasma (closed circles). The y-axis presents the ELISA signal in absorbance units, and the x-axis presents the concentration of kininogen in μg/mL.
The following day, the plate was washed and then blocked with 2% BSA (Protease/IgG free) in PBS buffer. Following a wash, samples containing cleaved HMWK in 0.1% BSA buffer in PBS with 0.05% Tween-20 (2-Chain HMWK assay buffer). Purified protein standards (e.g., 2-chain HMWK, intact HMWK or LMWK) were spiked into HMWK-deficient plasma and diluted 1:320 in 2-chain HMWK assay buffer. Following plate washing with PBST, a mixture of 2 mouse monoclonal antibodies (11H05 and 13B12) at 1 μg/mL in 2-chain HMWK assay buffer were added for 1 hour at room temperature. […] Signal was detected by the addition of 3,3′,5,5′-tetramethylbenzidine (TMB), an HRP substrate. […] Hydrolysis of a TMB substrate was detected using a microplate reader at 450 nm-630 nm (FIG. 3). […] Using these immunoassay conditions, specifically binding to cleaved HMWK was detected.

[2] = biological target: T2, intact high molecular weight kininogen (HMWK) (Homo sapiens, UniProt P01042 19-644); assay: optimized sandwich ELISA: M004-B04 capture, detection 11H05 + 13B12; value = C of the printed 4-P fit; the curve has no upper plateau in the range: last point about 0.95 at about 250 ng/mL, fitted line about 1.5 at 1000 ng/mL, so C and D are extrapolated
T2 construct: also called intact HMWK; 1-chain HMWK
T2 sequence: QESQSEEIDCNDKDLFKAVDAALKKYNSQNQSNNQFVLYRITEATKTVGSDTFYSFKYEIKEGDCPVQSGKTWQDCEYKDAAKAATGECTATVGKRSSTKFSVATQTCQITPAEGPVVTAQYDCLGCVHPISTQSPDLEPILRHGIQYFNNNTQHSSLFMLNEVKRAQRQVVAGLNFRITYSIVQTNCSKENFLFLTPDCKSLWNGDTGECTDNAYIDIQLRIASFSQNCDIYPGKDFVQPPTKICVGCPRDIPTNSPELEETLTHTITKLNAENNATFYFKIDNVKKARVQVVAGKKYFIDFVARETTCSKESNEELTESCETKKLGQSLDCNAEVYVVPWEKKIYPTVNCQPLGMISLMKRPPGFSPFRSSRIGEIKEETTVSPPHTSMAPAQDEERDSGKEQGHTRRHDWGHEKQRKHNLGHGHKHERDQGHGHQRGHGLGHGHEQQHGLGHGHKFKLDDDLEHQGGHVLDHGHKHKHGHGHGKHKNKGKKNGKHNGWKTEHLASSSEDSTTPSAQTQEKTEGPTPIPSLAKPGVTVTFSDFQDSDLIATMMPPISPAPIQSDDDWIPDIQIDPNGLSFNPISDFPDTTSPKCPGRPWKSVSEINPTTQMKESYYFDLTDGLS
Protocol: The following day, the plate was washed and then blocked with 2% BSA (Protease/IgG free) in PBS buffer. Following a wash, samples containing cleaved HMWK in 0.1% BSA buffer in PBS with 0.05% Tween-20 (2-Chain HMWK assay buffer). Purified protein standards (e.g., 2-chain HMWK, intact HMWK or LMWK) were spiked into HMWK-deficient plasma and diluted 1:320 in 2-chain HMWK assay buffer. Following plate washing with PBST, a mixture of 2 mouse monoclonal antibodies (11H05 and 13B12) at 1 μg/mL in 2-chain HMWK assay buffer were added for 1 hour at room temperature. Unbound detection antibodies were washed and a 1:2000 dilution of goat anti-mouse secondary antibody conjugated to horseradish peroxidase (HRP) was added. The assay containing the secondary antibody was incubated for 1 hour at room temperature, and unbound secondary antibody was removed by washing with 2-chain HMWK assay buffer. Signal was detected by the addition of 3,3′,5,5′-tetramethylbenzidine (TMB), an HRP substrate. The reaction was stopped with phosphoric acid. Hydrolysis of a TMB substrate was detected using a microplate reader at 450 nm-630 nm (FIG. 3). […] Using these immunoassay conditions, specifically binding to cleaved HMWK was detected.

EC50 [1]: 184 µg/mL | EC50 [2]: 0.355 µg/mL
B1: 559B-M0004-B04 (Fab, V domains shown)
VH: EVQLLESGGGLVQPGGSLRLSCAASGFTFSFYVMVWVRQAPGKGLEWVSGISPSGGNTAYADSVKGRFTISRDNSKNTLYLQMNSLRAEDTAVYYCARKLFYYDDTKGYFDFWGQGTLVTVSS
VL: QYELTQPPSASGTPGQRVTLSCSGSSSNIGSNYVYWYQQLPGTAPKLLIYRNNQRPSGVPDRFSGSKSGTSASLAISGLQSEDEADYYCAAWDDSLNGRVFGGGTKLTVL
notes: also called M004-B04
